Results: patent publication US20250188194A1, “Method of treatment” (Nucleus Therapeutics Pty Ltd, priority 2021, published 2025)
Entries after “also recorded” stand apart in the source; their conditions may differ.

Assays:
PLB-985 cells = test: Cellular penetration assay; type: cell-based, human; conditions: PLB-985 cells in culture, 5 μM DX1 for one hour
Experimental: FIG. 1. DX1 penetrates PLB-985 cells. Cells treated with control or 5 μM DX1 for one hour were washed, fixed, and immunostained to detect DX1. […] Dark stain represents alkaline phosphatase-based detection of signal. Bar: 25 μm.
Work with isolated mouse or human neutrophils is challenging due to their short functional lifespans, and granulocyte-differentiated HL-60 and their subclone PLB-985 human acute myeloid leukemia cells provide a reliable alternative to isolated neutrophils for NETosis studies. The nuclear-penetrating anti-DNA autoantibody 3E10 and its derivative DX1 require expression of the nucleoside transporter ENT2 in order to penetrate target cells. ENT2 expression in HL-60 cells has previously been reported, and DX1 was confirmed to penetrate into ˜100% of PLB-985 cells in culture (FIG. 1).
PLB-985 cells cultured on Shi-fix coverslips (Shikhar Biotech, Khumaltar, Lalitpur, Nepal) were treated for one hour with control media or media containing 5 μM DX1 and then washed and fixed in 100% chilled ethanol. Presence of DX1 in the cells was evaluated by incubation with Pierce™ Recombinant Protein L (1:1000) (#21189, Thermo Fisher Scientific), protein L polyclonal antibody (1:1000) (#PA1-72066, Thermo Fisher Scientific), and goat anti-chicken IgY (H+L) alkaline phosphatase secondary antibody (1:1000) (#PA1-28799, Thermo Fisher Scientific). […]

[1] = test system: differentiated PLB-985 cells; test: Quantifying DNA released (adherent NET-DNA) after PMA stimulation by spectrophotometry; type: cell-based, human; conditions: 10 μM DX1 one hour, 300 nM PMA four hours; PMA control 4.50±0.14; N=3
Experimental: The results of the DAPI and SYTOX™ Green staining studies in FIG. 2C, 2D are consistent with DX1-mediated inhibition of chromatin decondensation and DNA release by differentiated PLB-985 cells. To further probe this effect, DNA-protein release was measured by differentiated PLB-985 cells after PMA stimulation by resuspending and quantifying DNA-protein complexes adherent to wells by spectrophotometry using a previously described protocol for isolation and quantification of NET-DNA in cell culture. This assay is based on the concept that intact cells for the most part remain in suspension, while DNA-protein complexes released in NETs are at least partially adhered to wells. This distinction allows for separation of intact cells from adherent NET-DNA by aspiration of the cell culture supernatants, followed by resuspension of adherent DNA-protein complexes and quantification by spectrophotometry.
Next, the ability of this assay to detect the effect of a known NETosis inhibitor on DNA release by differentiated PLB-985 cells stimulated by PMA was verified. […] Differentiated PLB-985 cells were treated with 0-50 μM of GSK484 for one hour prior to stimulation with PMA, followed by quantification of adherent DNA by spectrophotometry. […]

MPO immunized mice = test: Mouse model of ANCA associated vasculitis; type: in vivo; conditions: one or two doses of DX1 at 25 mg/kg, assessed day 20, versus MPO immunized control
Experimental: FIG. 9. Graphic depiction of an experiment testing the impact of DX1 in a 20-day mouse model of ANCA vasculitis.
FIGS. 10A-10D. […] Mice were treated as depicted in FIG. 9. Glomerular segmental necrosis, macrophages, neutrophils, and CD4+ T-cells was evaluated in control and MPO-immunized mice that subsequently were treated with or without one or two doses of DX1.
Mice receiving two doses of DX1 received their second dose at day 18. Mice were culled for assessment at day 20.
Mice were separated into 4 groups: Ova control (n=4); MPO immunized no treatment with DX1 (n=8); MPO immunized and 1 dose of DX1 at 25 mg/kg (n=8) and; MPO immunized and 2 doses of DX1 at 25 mg/kg.

B1: DX1: 3E10 derivative, a di-scFv having the sequence SEQ ID NO: 38; nuclear-penetrating anti-DNA binding protein (protein)
scFv: DIQMTQSPSSLSASLGDRATITCRASKTVSTSSYSYMHWYQQKPGQPPKLLIKYASYLESGVPSRFSGSGSGTDFTLTISSLQPEDAATYYCQHSREFPWTFGGGTKVEIKTVDAAPGGGGSGGGGSGGGGSEVQLVESGGGLVQPGGSLRLSCAASGFTFSNYGMHWVRQAPGKGLEWVSYISSGSSTIYYADSVKGRFTISRDNAKNSLYLQMNSLRAEDTAVYYCARRGLLLDYWGQGTTVTVSSASTKGPSVFPLAPLESTGSDIQMTQSPSSLSASLGDRATITCRASKTVSTSSYSYMHWYQQKPGQPPKLLIKYASYLESGVPSRFSGSGSGTDFTLTISSLQPEDAATYYCQHSREFPWTFGGGTKVEIKTVDAAPGGGGSGGGGSGGGGSEVQLVESGGGLVQPGGSLRLSCAASGFTFSNYGMHWVRQAPGKGLEWVSYISSGSSTIYYADSVKGRFTISRDNAKNSLYLQMNSLRAEDTAVYYCARRGLLLDYWGQGTTVTVSS
modifications: DX1 sequence
cells penetrated by DX1 (PLB-985 cells): ~100%
released/adherent DNA content relative to unstimulated control cells [1]: 1.80±0.11
glomerular segmental necrosis, macrophages, neutrophils and CD4+ T-cells (glomerular inflammation and pathology) (MPO immunized mice): significantly reduced glomerular inflammation and pathology; also recorded: significantly reduced amounts of all of the signs of glomerular inflammation
